± gives the standard deviation of the averaged measurements.
Test system: ATP
Test: switch fluorescence ratio, 500 uM ATP over buffer (Cy3 cluster intensity, sum of 5 cycles each) (fold (ratio)); higher = stronger signal-on switching upon ATP binding; sequences stand for … in TCGTCGGCAGCGTCAGATGTGTATAAGAGACAGTTTTTTTTTTTTTTTTTTTTTTTTT…TC
Details: aptamer strand: ATP DNA aptamer (quencher-CACCTGGGGGAGTATTGCGGAGGAAGG + anchor), 100 nM annealed; ATP concentration: 500 uM
In short: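 Clusters carrying Cy3-labelled switching strands on a modified Illumina MiSeq flow-cell were annealed to 100 nM quencher-labelled ATP aptamer and imaged in selection buffer. They were imaged again after 15 min with 500 uM ATP at 22 °C, over five buffer/ATP cycles with NaOH stripping and re-annealing in between. For each cluster, the fluorescence ratio is the summed Cy3 intensity of the target cycles divided by that of the buffer cycles, averaged per switch-domain sequence. Clusters outside 100-1000 RFU were left out.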
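Also: ATP exposure 15 min at 22 °C before imaging.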

Row | Sequence | switch fluorescence ratio
1 | GACGAATTGG | 0.997 ± 0.021
2 | TCTTTCGGAG | 1.33 ± 0.077
3 | ATTTATCCAC | 1.01 ± 0.046
4 | AGAAAGACTT | 1.04 ± 0.047
5 | GTTGTGGTCA | 0.9771 ± 0.0067
6 | GATATGGGGT | 0.9828 ± 0.0085
7 | AAGAGGGGG | 0.977 ± 0.026
8 | AACGGGGACT | 1.05 ± 0.063
9 | ATATCATCTC | 1.002 ± 0.0063
10 | GTGGGCCGCG | 0.979 ± 0.029
11 | GTGCTTAGGC | 1.06 ± 0.026
12 | TCGAACTGGG | 1.007 ± 0.0091
13 | ACAGAGGGTT | 1.03 ± 0.045
14 | AAGGGTGCTT | 1.018 ± 0.006
15 | ATTAGGTTAT | 1 ± 0.048
16 | TTGGAGCCCT | 1.069 ± 0.0022
17 | AAAAAGGGCA | 0.995 ± 0.061
18 | ATTTGGCGCT | 0.994 ± 0.059
19 | TTTTACACCT | 1.23 ± 0.2
20 | CCTAAAAGGG | 1 ± 0.032
21 | TATTAAAATT | 1.008 ± 0.0077
22 | TTACAGTTCG | 1.013 ± 0.0082
23 | TGATTCTTGA | 1.03 ± 0.064

Row | Sequence | switch fluorescence ratio
24 | GCATTTTCAT | 0.9766 ± 0.0094
25 | AGAAGGTCGG | 1.01 ± 0.036
26 | CTAGGTGGGT | 1.01 ± 0.027
27 | TCGTACAGTA | 1.02 ± 0.029
28 | GGAAATATTT | 0.98 ± 0.016
29 | CAATTGGGGG | 0.9968 ± 0.0078
30 | AACTACTGTG | 1.03 ± 0.056
31 | TCGAATGGGT | 1.02 ± 0.013
32 | TTTTTTACAG | 1.02 ± 0.011
33 | TCATGTTGAT | 1 ± 0.071
34 | AGGGTTTCCG | 1.03 ± 0.038
35 | AGGTGGGTTG | 1.01 ± 0.055
36 | TTTTAGGGTT | 1.01 ± 0.027
37 | GCGATGGTGT | 1.02 ± 0.008
38 | TTATAATTAT | 1.09 ± 0.092
39 | AAGGATGGTG | 0.957 ± 0.069
40 | TAGGGGAACG | 0.959 ± 0.0096
41 | AAATAGGTTA | 1.02 ± 0.046
42 | AAAAGTGCCA | 0.999 ± 0.027
43 | CGGGGGTCTG | 1.01 ± 0.028
44 | CAAATAAGTG | 0.9842 ± 0.0088
45 | TACTGGAGGC | 1.02 ± 0.043
46 | AGTCTGGTCC | 0.987 ± 0.01

Row | Sequence | switch fluorescence ratio
47 | ATAGTTGAGG | 0.981 ± 0.02
48 | AACAGCTGTT | 0.972 ± 0.035
49 | TTAGTGACA | 1.042 ± 0.0095
50 | TAAGGGGTCG | 1.03 ± 0.046
51 | GCTAGAATAT | 1.02 ± 0.014
52 | GGCAGGGGGC | 1.02 ± 0.031
53 | TTCTGAGGTA | 1.01 ± 0.03
54 | GGGTGGGCCT | 0.989 ± 0.042
55 | ATGGTTAACT | 1.03 ± 0.016
56 | TTGGCCATGA | 0.976 ± 0.029
57 | CGGGGTAAAG | 0.9787 ± 0.0032
58 | ATGACGGAGC | 1.94 ± 0.31
59 | TTCCTATTTT | 1 ± 0.029
60 | TTATTAAGAC | 1 ± 0.032
61 | GGTTTTTTTA | 0.983 ± 0.032
62 | TCCGAACTCG | 1.22 ± 0.019
63 | ATTTGGGGAA | 0.976 ± 0.021
64 | ATGCGCAGAA | 1.01 ± 0.034
65 | GGGTGGCAGG | 1.01 ± 0.013
66 | TGTGCTAGGG | 0.98 ± 0.028
67 | GTGGTTTGGT | 0.979 ± 0.035
68 | TCCGCGGCTT | 2.12 ± 1.5
69 | TCTGAGGTTT | 1.04 ± 0.029

Row | Sequence | switch fluorescence ratio
70 | AGAGGCCTGT | 1.01 ± 0.0086
71 | TGGTGGCGCG | 0.976 ± 0.027
72 | ATGGTAGATA | 1.02 ± 0.0041
73 | AGAATTATCT | 1 ± 0.024
74 | AGCGGCATCT | 0.983 ± 0.0093
75 | TCTGAGCGAC | 1.57 ± 0.14
76 | CGAAACCGAC | 2.17 ± 1.2
77 | CGTTTGTATA | 0.987 ± 0.015
78 | TTATTTGTCG | 1.01 ± 0.019
79 | GGTGTTGAAG | 0.986 ± 0.044
80 | TGGAATGGAA | 0.9717 ± 0.0076
81 | AATGGGTTAT | 0.992 ± 0.025
82 | TGGTTCTATT | 1.02 ± 0.064
83 | CGGTATCTAT | 0.96436 ± 0.00057
84 | ACCGGGTTTT | 1.03 ± 0.02
85 | TAAGGGTGGT | 1.01 ± 0.027
86 | AAAAAGGGAG | 1.01 ± 0.044
87 | AGTTGACGGG | 1.03 ± 0.0082
88 | ATCGTTAAAC | 1.01 ± 0.0099
89 | TGGTTGGGGG | 0.995 ± 0.024
90 | TACGGCAAAT | 1.121 ± 0.01
91 | AAGATGGTTA | 0.97 ± 0.01
92 | CTCGTTATGT | 0.9782 ± 0.0065

Row | Sequence | switch fluorescence ratio
93 | GTGTGAAATC | 0.987 ± 0.043
94 | ATGAAGGGAG | 0.991 ± 0.061
95 | GGGTGTAGGA | 1.03 ± 0.065
96 | AAAAAATGTG | 0.99 ± 0.031
97 | TTCTGTTGGG | 0.984 ± 0.013
98 | TTTAAAGCTG | 1.06 ± 0.064
99 | GTAGTGCAAT | 1.1 ± 0.018
100 | TTGTTACTTT | 1 ± 0.017
101 | TTAGGGGGGC | 1.02 ± 0.053
102 | AGAGGGGCAG | 0.961 ± 0.016
103 | TTAGGGGCGC | 0.985 ± 0.014
104 | GTTGATTTTT | 0.982 ± 0.018
105 | AGGATGGGAG | 0.999 ± 0.023
106 | GTCCGGGGGG | 1.26 ± 0.015
107 | CGTATTATAA | 1.01 ± 0.023
108 | TCATGGTATG | 0.997 ± 0.024
109 | TCCATACCAC | 1.03 ± 0.032
110 | AGTAGGGCTT | 1.01 ± 0.039
111 | GGACGTAGTA | 1.006 ± 0.0071
112 | TGGATGGTGG | 0.9906 ± 0.0024
113 | TAGAAGTGGT | 0.9963 ± 0.0084
114 | TGGGTTATTA | 1 ± 0.018
115 | CCGATGATTT | 1.5 ± 0.56

Row | Sequence | switch fluorescence ratio
116 | TTATGGATAA | 1 ± 0.018
117 | GATTATGTTA | 0.9772 ± 0.007
118 | ATAAGCGATT | 1.03 ± 0.024
119 | AGTTTTTTTA | 0.981 ± 0.018
120 | CGGGGGCGCA | 0.9414 ± 0.007
121 | AGACCGGGGA | 0.989 ± 0.033
122 | ACTTAGTTAA | 1.02 ± 0.015
123 | CTGGGAGTAC | 1.04 ± 0.051
124 | GGGCGTGGTG | 1.03 ± 0.011
125 | CTTATGAAGC | 1.14 ± 0.012
126 | TTGTCAGAGT | 1.001 ± 0.0015
127 | CGGGTCTGCT | 0.985 ± 0.022
128 | TTCAGTTTTT | 1 ± 0.026
129 | CGTAACTGTT | 0.995 ± 0.091
130 | TTTTAAAAAT | 1.03 ± 0.056
131 | GTTAGGGCGT | 1.01 ± 0.011
132 | GAAAAGTGAG | 0.975 ± 0.016
133 | CTAACGTGAG | 1.02 ± 0.034
134 | TTGTAGGGGG | 1.17 ± 0.4
135 | ATGCACACTC | 1.225 ± 0.0043
136 | CTGGGTAACG | 0.996 ± 0.034
137 | GAAATCCAGG | 1.297 ± 0.0087
138 | AGAGAGGGAA | 1 ± 0.025

Row | Sequence | switch fluorescence ratio
139 | AAGACGTGGA | 0.9993 ± 0.0064
140 | TTACATTGTT | 1.06 ± 0.11
141 | GATCTTTCGT | 1.01 ± 0.031
142 | AAATAATTGT | 1.019 ± 0.01
143 | CCAAATGCGA | 1.97 ± 0.068
144 | TTTTTACAAT | 1.01 ± 0.039
145 | AAATCCTTAT | 0.996 ± 0.063
146 | ACGTCTAGTG | 0.965 ± 0.023
147 | TGACATGGGG | 0.9827 ± 0.0051
148 | TCCTATAAAA | 0.987 ± 0.032
149 | GGCGGATAAG | 0.979 ± 0.013
150 | AGGGAATGAA | 1.03 ± 0.085
151 | ACGGGGTCGG | 1.01 ± 0.044
152 | TAACGCGGAC | 2.5233 ± 3.9e-05
153 | GGGACGGGTA | 1.008 ± 0.0015
154 | TTTTAAATGA | 1 ± 0.021
155 | AACTAAGGGA | 0.9949 ± 0.0068
156 | ACCAGTCTAG | 0.979 ± 0.018
157 | CGGGTGCGGT | 0.951 ± 0.045

— the supplement of paper PMC10126150
